Stoichiometry N data for one substance are collected here from paper PMC6172241, “A multisubstrate reductase from Plantago major: structure-function in the short chain reductase superfamily” (Scientific Reports, 2018).

In the test the target is PmMOR (Plantago major multisubstrate oxido-reductase) (Plantago major). Nature of the test: SEC; Superdex 200, 20 mM Tris pH 8.0, 100 mM NaCl, 1 mM TCEP; oligomeric state judged from the elution volume.

By stoichiometry N is commonly meant the number of molecules, sites or subunits per partner or assembly. Substance “PmMOR (Plantago major multisubstrate oxido-reductase) (enzyme)” registered a stoichiometry N of 2.
